According to IntAct's records for PubMed 29541021:

Tests used:
1433f_human YWHAH = 1433f_human YWHAH (UniProt Q04917)
dnm1l_human DNM1L = dnm1l_human DNM1L (UniProt O00429)
Sequence of dnm1l_human DNM1L (O00429 whole entry): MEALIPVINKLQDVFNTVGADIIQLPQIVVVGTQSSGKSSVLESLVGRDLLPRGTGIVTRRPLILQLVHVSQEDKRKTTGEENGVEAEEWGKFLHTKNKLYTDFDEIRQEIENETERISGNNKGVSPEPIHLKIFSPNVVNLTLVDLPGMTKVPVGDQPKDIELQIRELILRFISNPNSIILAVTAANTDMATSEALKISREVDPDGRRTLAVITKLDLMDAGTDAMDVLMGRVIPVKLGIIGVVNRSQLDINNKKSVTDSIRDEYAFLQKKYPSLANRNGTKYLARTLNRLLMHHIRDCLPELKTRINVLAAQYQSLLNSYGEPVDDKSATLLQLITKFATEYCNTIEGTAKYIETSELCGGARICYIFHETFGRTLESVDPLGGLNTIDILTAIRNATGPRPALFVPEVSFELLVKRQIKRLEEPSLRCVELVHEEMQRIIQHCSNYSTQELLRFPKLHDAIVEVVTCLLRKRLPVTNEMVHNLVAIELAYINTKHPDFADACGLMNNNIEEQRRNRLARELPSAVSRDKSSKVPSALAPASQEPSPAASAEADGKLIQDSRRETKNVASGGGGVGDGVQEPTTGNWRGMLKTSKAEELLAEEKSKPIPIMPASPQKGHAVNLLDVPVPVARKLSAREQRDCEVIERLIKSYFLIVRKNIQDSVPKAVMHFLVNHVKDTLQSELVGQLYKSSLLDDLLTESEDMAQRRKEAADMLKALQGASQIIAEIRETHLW

Sequence of 1433f_human YWHAH (Q04917 whole entry): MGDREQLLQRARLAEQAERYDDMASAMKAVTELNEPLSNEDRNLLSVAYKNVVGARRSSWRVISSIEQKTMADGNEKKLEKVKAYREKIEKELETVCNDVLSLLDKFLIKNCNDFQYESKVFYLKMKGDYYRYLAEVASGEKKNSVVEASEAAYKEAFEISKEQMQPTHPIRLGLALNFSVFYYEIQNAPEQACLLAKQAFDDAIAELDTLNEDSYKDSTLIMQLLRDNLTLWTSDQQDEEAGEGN

## Leucine-rich repeat serine/threonine-protein kinase 2 (Homo sapiens), Q5S007 E193K
1433f_human YWHAH
  effect of a mutation on the interaction: decreasing interaction strength
dnm1l_human DNM1L
  effect of a mutation on the interaction: increasing interaction strength
